Test results reported in article PMC8591536, “DNA asymmetry promotes SUMO modification of the single‐stranded DNA‐binding protein RPA” (The EMBO Journal, 2021).

Legend:
Siz2∆CT K65E K66E = target: T1, Siz2∆CT K65E K66E (Saccharomyces cerevisiae? (budding …, UniProt Q12216 1-420, K65E;K66E)); experiment: fluorescence polarization; FP: 20 mM HEPES pH 7.5, 125 mM NaCl, 0.1% Tween-20, 23°C, 50 nM DNA (RPA/SUMO-RPA on ss32: 1 nM DNA, plus 5 mM MgCl2, 1 mM DTT); EMSA: same buffer with 5 mM MgCl2 (Fig 8 also 1 mM DTT), 23°C, 6% gel in 0.5x TBE; conditions: protein: recombinant; tags: His6-thioredoxin removed with TEV; label: 5' 6-FAM on strand 1; blunt
T1 sequence: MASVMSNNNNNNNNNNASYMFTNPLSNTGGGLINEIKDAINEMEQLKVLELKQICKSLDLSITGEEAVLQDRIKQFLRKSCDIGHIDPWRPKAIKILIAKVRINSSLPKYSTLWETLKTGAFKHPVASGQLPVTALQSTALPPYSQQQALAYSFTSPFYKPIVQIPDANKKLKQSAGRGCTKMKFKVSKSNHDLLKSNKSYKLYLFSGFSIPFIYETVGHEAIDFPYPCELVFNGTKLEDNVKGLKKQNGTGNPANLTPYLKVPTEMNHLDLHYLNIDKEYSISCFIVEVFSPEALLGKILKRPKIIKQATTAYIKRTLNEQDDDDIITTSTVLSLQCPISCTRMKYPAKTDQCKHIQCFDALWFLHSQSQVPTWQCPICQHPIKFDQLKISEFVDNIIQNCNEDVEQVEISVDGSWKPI

[1] = target: Siz2 full length;RPA (Rfa1/Rfa2/Rfa3) (Saccharomyces cerevisiae? (budding …, UniProt Q12216;P22336;P26754;P26755 1-726;1-621;1-273;1-122, |)); experiment: EMSA; Siz2 titrated into RPA-DNA; 5 mM MgCl2; FP: 20 mM HEPES pH 7.5, 125 mM NaCl, 0.1% Tween-20, 23°C, 50 nM DNA (RPA/SUMO-RPA on ss32: 1 nM DNA, plus 5 mM MgCl2, 1 mM DTT); EMSA: same buffer with 5 mM MgCl2 (Fig 8 also 1 mM DTT), 23°C, 6% gel in 0.5x TBE; conditions: protein: recombinant;recombinant; tags: His6-Smt3 removed with Ulp1;noncleavable N-terminal His6 on Rfa2; copies: 1;1;1;1; label: 5' 6-FAM on strand 2 (fw20); 20 bp duplex, 3' overhang 32 nt (dT)
Chain of Siz2 full length;RPA (Rfa1/Rfa2/Rfa3) (Saccharomyces cerevisiae? (P22336 whole entry, chain 2 of 3): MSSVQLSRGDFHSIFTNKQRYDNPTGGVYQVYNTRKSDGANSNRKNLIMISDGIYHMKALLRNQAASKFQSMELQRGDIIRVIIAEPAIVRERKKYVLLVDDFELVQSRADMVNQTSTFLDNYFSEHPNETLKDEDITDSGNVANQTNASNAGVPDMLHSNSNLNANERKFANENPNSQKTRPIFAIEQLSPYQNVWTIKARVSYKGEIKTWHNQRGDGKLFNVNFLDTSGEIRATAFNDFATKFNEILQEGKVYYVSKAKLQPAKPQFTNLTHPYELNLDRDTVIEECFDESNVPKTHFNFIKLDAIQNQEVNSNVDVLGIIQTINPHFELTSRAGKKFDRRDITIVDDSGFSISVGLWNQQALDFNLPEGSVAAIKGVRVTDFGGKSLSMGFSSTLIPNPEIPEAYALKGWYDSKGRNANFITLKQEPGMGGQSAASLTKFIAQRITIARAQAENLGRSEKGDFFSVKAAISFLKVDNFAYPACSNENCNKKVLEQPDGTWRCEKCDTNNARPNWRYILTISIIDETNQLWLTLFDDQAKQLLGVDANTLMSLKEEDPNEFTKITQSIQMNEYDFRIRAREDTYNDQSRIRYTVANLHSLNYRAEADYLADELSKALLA
Chain of Siz2 full length;RPA (Rfa1/Rfa2/Rfa3) (Saccharomyces cerevisiae? (P26754 whole entry, chain 3 of 3): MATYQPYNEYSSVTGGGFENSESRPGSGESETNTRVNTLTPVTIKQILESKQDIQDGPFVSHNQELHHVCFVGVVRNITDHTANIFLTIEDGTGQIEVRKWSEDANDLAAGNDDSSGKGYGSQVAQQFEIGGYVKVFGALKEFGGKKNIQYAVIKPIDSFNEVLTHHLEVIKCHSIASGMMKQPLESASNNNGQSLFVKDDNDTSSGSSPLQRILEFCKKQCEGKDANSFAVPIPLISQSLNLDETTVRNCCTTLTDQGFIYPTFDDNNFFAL
Chain of Siz2 full length;RPA (Rfa1/Rfa2/Rfa3) (Saccharomyces cerevisiae? (P26755 whole entry, chain 4 of 3): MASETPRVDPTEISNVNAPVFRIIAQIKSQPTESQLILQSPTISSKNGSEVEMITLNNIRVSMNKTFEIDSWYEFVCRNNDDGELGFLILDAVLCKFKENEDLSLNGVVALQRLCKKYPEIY

B1: 6-FAM-ds20 (dsDNA)
DNA 1: GCTGTAGCTAGTTTTGCTTC
DNA 2: GAAGCAAAACTAGCTACAGC
B1: no binding (Siz2∆CT K65E K66E).

B2: 6-FAM-ds20ss32 (mixed)
DNA 1: GAAGCAAAACTAGCTACAGCTTTTTTTTTTTTTTTTTTTTTTTTTTTTTTTT
DNA 2: GCTGTAGCTAGTTTTGCTTC
B2: binds [1].
